Experimental data: article PMC10713658

Target: ABI2 (UniProt Q9NYB9)
Assay: Flag co-IP, ABI2 Western blot
Conditions: reference: wild type, OA-treated; sites S668,T670,S671

GRAF1 (from UniProt Q9UNA1) AAA (S668A/T670A/S671A), OA-treated
binding against the reference: weaker
